Data taken from US20020058800A1.

Target: murine 103 gene product, transmembrane form, on the cell surface (murine) (UniProt P14719)
Test: flow cytometry; digoxigenin-labelled 3E10 with anti-Dig-PE against CD4-FITC, on CD4+ T cells cultured with IL-4 + anti-IL-12 (TH2 conditions). This is the middle of three panels, between 5.2 % (after primary restimulation) and 41 % (after tertiary restimulation). [C) TH2, middle panel]

UniProt P14719, sequence (P14719 24-567): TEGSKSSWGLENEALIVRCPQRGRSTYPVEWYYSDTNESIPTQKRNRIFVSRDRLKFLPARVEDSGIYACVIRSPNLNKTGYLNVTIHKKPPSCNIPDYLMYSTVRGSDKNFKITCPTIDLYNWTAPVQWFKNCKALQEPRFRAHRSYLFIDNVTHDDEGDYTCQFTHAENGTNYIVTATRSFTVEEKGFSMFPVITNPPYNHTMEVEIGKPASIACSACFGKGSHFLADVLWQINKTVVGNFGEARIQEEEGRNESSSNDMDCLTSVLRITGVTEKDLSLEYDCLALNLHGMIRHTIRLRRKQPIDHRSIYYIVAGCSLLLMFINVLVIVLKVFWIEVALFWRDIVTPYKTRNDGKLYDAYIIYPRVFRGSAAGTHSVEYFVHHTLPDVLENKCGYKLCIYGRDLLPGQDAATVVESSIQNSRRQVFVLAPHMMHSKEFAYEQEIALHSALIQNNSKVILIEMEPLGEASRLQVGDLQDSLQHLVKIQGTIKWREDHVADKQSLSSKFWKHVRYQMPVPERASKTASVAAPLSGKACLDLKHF

Substance: 3E10 mAb (antibody)
- % of cells in the upper right quadrant (3E10+ CD4+): 11.1%
